Test results taken from patent US7176279.

Experiments:
hMC4-R (human) = hMC4-R (human) (UniProt P32245); assay: competition with 125I-NDP-MSH, HEK 293 hMC4-R membranes, 1 µM peptide
hMC5-R (human) = hMC5-R (human) (UniProt P33032); assay: competition with 125I-NDP-MSH, HEK 293 hMC5-R membranes, 1 µM peptide
hMC3-R (human) = hMC3-R (human) (UniProt P41968); assay: competition with 125I-NDP-MSH, HEK 293 hMC3-R membranes, 1 µM peptide
hMC3-R (human), sequence (P41968 whole entry): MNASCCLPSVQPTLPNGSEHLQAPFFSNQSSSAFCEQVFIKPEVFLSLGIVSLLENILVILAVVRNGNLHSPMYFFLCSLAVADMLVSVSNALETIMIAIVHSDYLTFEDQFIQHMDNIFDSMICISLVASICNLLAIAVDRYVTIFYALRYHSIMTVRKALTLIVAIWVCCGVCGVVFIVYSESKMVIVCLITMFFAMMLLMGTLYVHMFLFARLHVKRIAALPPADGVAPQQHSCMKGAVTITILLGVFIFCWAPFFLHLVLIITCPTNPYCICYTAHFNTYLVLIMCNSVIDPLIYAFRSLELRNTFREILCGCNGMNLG

hMC4-R (human), sequence (P32245 whole entry): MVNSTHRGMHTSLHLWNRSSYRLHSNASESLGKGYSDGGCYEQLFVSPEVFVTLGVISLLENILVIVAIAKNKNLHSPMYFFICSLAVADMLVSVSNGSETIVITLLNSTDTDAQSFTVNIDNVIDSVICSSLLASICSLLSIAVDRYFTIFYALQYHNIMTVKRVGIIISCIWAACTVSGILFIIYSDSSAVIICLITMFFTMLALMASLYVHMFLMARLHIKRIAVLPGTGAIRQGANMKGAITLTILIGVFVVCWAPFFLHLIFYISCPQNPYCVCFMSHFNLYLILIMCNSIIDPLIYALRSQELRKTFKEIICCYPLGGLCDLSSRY
hMC5-R (human), sequence (P33032 whole entry): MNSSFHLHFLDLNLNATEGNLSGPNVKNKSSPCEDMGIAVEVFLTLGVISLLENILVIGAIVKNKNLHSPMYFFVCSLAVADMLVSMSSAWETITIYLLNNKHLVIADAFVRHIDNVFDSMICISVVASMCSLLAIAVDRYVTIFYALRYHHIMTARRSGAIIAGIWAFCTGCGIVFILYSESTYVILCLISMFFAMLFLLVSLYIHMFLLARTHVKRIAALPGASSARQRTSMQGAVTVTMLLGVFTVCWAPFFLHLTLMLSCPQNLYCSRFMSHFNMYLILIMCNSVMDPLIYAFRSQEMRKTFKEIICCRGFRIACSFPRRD

| Percent Inhibition At 1 µM concentration (hMC4-R (human)) [%] | Percent Inhibition At 1 µM concentration (hMC5-R (human)) [%] | Percent Inhibition At 1 µM concentration (hMC3-R (human)) [%] | Substance |
| --- | --- | --- | --- |
| 9 | 8 |  | Ac-Nle-cyclo(-Asp-D-His-D-Phe-Arg-Trp-Lys)-OH (peptide) |
|  |  | 6 | Ac-Nle-cyclo(-Asp-His-D-Phe-Orn-Trp-Lys)-OH (peptide) |
| 4 |  |  | Ac-Nle-cyclo(-Asp-His-D-Phe-D-Arg-Trp-Lys)-OH (peptide) |
| 4 | 7 |  | Ac-Nle-cyclo(-Asp-His-Phe-Arg-Trp-Lys)-OH (SEQ ID NO:2) (peptide) |
